Measurements as given in article PMC2814116.

Biological target: Phaseolus coccineus PCNA1 (PcPCNA1), recombinant (Phaseolus coccineus)
Assay: SEC

Phaseolus coccineus PCNA1 (PcPCNA1), recombinant (natural protein)
stoichiometry N: 3
